In the data set the target is HFV integrase (HFV IN) (Human foamy virus, UniProt P14350 752-1143). In words: EMSA; 5 mM Mg2+. The conditions noted are these: protein: recombinant; chain copies: 4; blunt. On the technique in general: A gel shift assay detects complexes by their altered migration in electrophoresis.

B1: U5-HFV duplex (U5B-HFV/U5A-HFV) (dsDNA)
DNA 1: ATACAAAATTCCATGACAAT
DNA 2: ATTGTCATGGAATTTTGTAT
Broadly, the Kd is the equilibrium constant for the complex coming apart. B1: the Kd was 17.3 nM.

Values taken from paper PMC3347520, “Relative Comparison of Catalytic Characteristics of Human Foamy Virus and HIV-1 Integrases”.
